Experimental data taken from publication PMC9482650, “Quantitative fragmentomics allow affinity mapping of interactomes” (Nature Communications, 2022).

Columns and labels:
Test in all cases: holdup assay
Set-up in all cases: key: below the threshold = too weak to quantify, mostly under pKd 3.1 to 4
Settings in all cases: plain residues with an end cap or a label only (N-terminal biotin on a linker: ttds)
[1] = biological target: T1, APBA3_2, O96018
T1 sequence (O96018 480-570, limits assumed, looked up): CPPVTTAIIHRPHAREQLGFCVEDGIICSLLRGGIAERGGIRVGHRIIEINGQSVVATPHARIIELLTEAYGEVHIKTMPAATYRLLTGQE

[2] = biological target: T2, CNKSR1, Q969H4
T2 sequence (Q969H4 191-295, limits assumed, looked up): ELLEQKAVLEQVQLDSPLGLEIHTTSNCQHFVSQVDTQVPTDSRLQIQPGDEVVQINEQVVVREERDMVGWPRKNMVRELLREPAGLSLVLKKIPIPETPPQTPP

[3] = biological target: T3, GRIP1_1, Q9Y3R0
T3 sequence (Q9Y3R0 48-146, limits assumed, looked up): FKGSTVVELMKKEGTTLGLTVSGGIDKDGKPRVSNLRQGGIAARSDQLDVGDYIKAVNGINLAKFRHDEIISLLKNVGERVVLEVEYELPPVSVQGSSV

[4] = biological target: LIMK1, P53667
LIMK1, P53667, sequence (P53667 155-268): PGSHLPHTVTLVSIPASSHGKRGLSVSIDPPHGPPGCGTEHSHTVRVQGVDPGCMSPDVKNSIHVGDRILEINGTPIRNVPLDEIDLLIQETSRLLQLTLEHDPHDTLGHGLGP

[5] = biological target: T4, MAGI2_1, Q86UL8
T4 sequence (Q86UL8 12-111, limits assumed, looked up): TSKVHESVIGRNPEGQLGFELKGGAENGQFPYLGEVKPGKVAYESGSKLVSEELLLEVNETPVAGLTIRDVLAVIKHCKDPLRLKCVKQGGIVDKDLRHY

[6] = biological target: MAGIX, Q9H6Y5
MAGIX, Q9H6Y5, sequence (Q9H6Y5 118-211): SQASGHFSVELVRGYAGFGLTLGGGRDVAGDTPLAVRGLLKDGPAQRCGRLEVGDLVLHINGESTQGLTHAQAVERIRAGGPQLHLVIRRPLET

[7] = biological target: T5, MPDZ_11, O75970
T5 sequence (O75970 1720-1817, limits assumed, looked up): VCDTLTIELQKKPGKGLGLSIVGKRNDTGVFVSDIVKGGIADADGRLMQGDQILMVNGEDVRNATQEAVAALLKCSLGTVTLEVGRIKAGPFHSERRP

[8] = biological target: T6, MPDZ_13, O75970
T6 sequence (O75970 1982-2070, limits assumed, looked up): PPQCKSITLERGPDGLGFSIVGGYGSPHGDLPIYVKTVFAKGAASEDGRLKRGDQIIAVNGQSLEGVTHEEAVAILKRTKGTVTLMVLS

[9] = biological target: T7, MPDZ_6, O75970
T7 sequence (O75970 1003-1099, limits assumed, looked up): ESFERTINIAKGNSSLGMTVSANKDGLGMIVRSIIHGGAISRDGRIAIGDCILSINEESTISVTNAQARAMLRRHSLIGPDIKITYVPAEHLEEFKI

[10] = biological target: T8, NHERF1_1, O14745
T8 sequence (O14745 9-104, limits assumed, looked up): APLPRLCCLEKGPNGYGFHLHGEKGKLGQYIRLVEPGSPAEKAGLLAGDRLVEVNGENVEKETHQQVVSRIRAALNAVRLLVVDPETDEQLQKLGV

[11] = biological target: T9, NHERF1_2, O14745
T9 sequence (O14745 149-244, limits assumed, looked up): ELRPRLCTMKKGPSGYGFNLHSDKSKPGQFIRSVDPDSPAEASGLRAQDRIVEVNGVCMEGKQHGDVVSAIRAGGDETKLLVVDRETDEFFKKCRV

[12] = biological target: O43166
[13] = biological target: T10, PARD6B, Q9BYG5
T10 sequence (Q9BYG5 152-260, limits assumed, looked up): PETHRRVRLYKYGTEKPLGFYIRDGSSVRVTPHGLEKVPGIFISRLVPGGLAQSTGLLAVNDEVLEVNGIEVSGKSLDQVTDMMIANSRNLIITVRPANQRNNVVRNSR

[14] = biological target: T11, PARD6G, Q9BYG4
T11 sequence (Q9BYG4 153-261, limits assumed, looked up): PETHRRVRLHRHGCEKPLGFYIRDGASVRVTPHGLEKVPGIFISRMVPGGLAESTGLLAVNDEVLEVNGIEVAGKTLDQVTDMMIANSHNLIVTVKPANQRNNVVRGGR

[15] = biological target: PDZRN4_2, Q6ZMN7
PDZRN4_2, Q6ZMN7, sequence (Q6ZMN7 389-498): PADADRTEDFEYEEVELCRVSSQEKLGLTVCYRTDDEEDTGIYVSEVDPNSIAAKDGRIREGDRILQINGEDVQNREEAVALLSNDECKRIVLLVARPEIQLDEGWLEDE

[16] = biological target: T12, PTPN13_4, Q12923
T12 sequence (Q12923 1783-1878, limits assumed, looked up): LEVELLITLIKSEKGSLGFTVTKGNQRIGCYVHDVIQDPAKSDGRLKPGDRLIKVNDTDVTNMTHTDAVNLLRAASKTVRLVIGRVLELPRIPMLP

[17] = biological target: Q5TCQ9
[18] = biological target: Q96FS4
[19] = biological target: Q9H190
[20] = biological target: Q9P227
[21] = biological target: Q9UMS6
[22] = biological target: RGS3, P49796-9
RGS3, P49796-9, sequence (P49796 other isoform, or with tags, fused parts or gaps): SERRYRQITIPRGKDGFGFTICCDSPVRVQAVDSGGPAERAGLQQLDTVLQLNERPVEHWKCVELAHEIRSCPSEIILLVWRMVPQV

[23] = biological target: T13, SHANK2, Q9UPX8
T13 sequence (Q9UPX8 621-730, limits assumed, looked up): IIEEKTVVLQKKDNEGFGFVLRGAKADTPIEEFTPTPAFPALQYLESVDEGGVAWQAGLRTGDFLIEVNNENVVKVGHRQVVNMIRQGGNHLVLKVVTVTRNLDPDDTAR

[24] = biological target: T14, SIPA1L3, O60292
T14 sequence (O60292 961-1052, limits assumed, looked up): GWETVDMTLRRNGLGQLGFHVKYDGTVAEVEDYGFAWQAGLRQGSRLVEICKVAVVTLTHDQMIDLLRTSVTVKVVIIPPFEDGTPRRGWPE

Measured: pKd

STLTIFETAL [ABCC4, O15439]
5.36: [10]
4.24: [4]
4.85: [23]
below the threshold: all other assays above
